According to the DeepSol protein solubility set:

Assay: soluble on expression in E. coli; label from the status in PepcDB or PDB records

Q: With “MSLLRQRFVFDTTALTDSQAWESEGCTTLCEGMSAILHRVAQARLHLGISCYVPYPSVYNEIRDFVRNNNCDIAILGKIDTWLVKKTPDRYRVKIPSKIFYEYVDYMRSRINKGMNVSEEAIWEAVSRCLSISATGEGREQMREEIEREVVGSIIRKFREKYRAALRYGILDSAPDIDVLLLAKDLDAAVVSQDLGIQRWAEQLGLRFMEARAFPQMVREYMSFVPLHTEELEDRMVEGHHHHHH” as the sequence, how does the “soluble on expression in E. coli” value read?
A: Its value is “soluble”.

Q: For “MSDNDIIDDDVLNIEDMTGDDADLSAIEGDLNEIEEEQKKLKAIQNEMVGHMNLNTSSQSNSSQSLLTPEEKAEADAKSVYVGNVDYGATAEEIEQHFHGCGSVSRVTIQCDRFSGHPKGFAYVEFTEKEGMQNALAMTDSLLRGRQIKVDPKRTNKPGMSTTNRPPFRGRGGRGRGNVIVKYVYAGGFRPRGRGARRRPGFAPY”, which “soluble on expression in E. coli” value is on record?
A: Its value is “soluble”.

Q: For “HHHHHHSSGLVPRGSHMSVKKAGVLGATGSVGQRFILLLSKHPEFEIHALGASSRSAGKKYKDAASWKQTETLPETEQDIVVQECKPEGNFLECDVVFSGLDADVAGDIEKSFVEAGLAVVSNAKNYRREKDVPLVVPIVNPEHIDVVENKVKQAVSKGGKKPGFIICISNCSTAGLVAPLKPLVEKFGPIDALTTTTLQAISGAGFSPGVSGMDILDNIVPYISGEEDKLEWETKKILGGVNAEGTEFVPIPESEMKVSAQCNRVPVIDGHTECISLRFANRPAPSVEDVKQCLREYECAASKLGCHSAPKQTIHVLDQPDRPQPRLDRDRDSGYGVSVGRIREDSLLDFKMVVLSHNTIIGAAGAGILIAEILKAKNII”, which “soluble on expression in E. coli” value is on record?
A: The value was “soluble”.

Q: With “SSLCEDMLLCNYRKCRIKLSGYAWVTACSHIFCDQHGSGEFSRSPAICPACNSTLSGKLDIVRTELSPSEEYKAMVLAGLRPEIVLDISSRALAFWTYQVHQERLYQEYNFSKAEGHLKQMEKIYTQQIQSKDVELTSMKGEVTSMKKVLEEYKKKFSDISEKLMERNRQYQKLQGLYDSLRLRNITIANHEGTLEPSMIAQSGVLGFPLGNNSKFPLDNTPVRNRGDGDGDFQFRPFFAGSPTAPEPSNSFFSFVSPSRELEQQQVSSRAFKVKRI” as the sequence, how does the “soluble on expression in E. coli” value read?
A: Its value is “not soluble”.

Q: Which “soluble on expression in E. coli” value does the source give for “MSLDKSIPVPEPSRMITGIKVHKISDVITYQGMISLTYDNNKRLTRIYSSSPLAAVNYTYKENSEVSYTYSTENSPLVEISTSLENGRSYVCKFSNRENPVTYSYDNEGYLKSCNNNGTVLEYNWESGNLSSITTTPRGTYNSDYRVSNIANDYSLDLNTLAQWIDDRENYTTVMNTFGQMAEILGKRSANILEDTYYIYDYSFRQDGRLKDMTLMGGSENIGYSFRFSYADDTEVSEGHHHHHH” here?
A: The value was “soluble”.

Q: Which “soluble on expression in E. coli” value does the source give for “SRLEGWLSLPVRNNTKKFGWVKKYVIVSSKKILFYDSEQDKEQSNPYMVLDIDKLFHVRPVTQTDVYRADAKEIPRIFQILYANEGISSAKNLLLLANSTEEQQKWVSRLVKKIPKK” here?
A: Its value is “soluble”.

Q: For “AIPAPTDLKFTQVTPTSLSAQWTPPNVQLTGYRVRVTPKEKTGPMKEINLAPDSSSVVVSGLMVATKYEVSVYALKDTLTSRPAQGVVTTLENVSPPRRARVTDATETTITISWRTKTETITGFQVDAVPANGQTPIQRTIKPDVRSYTITGLQPGTDYKIYLYTLNDNARSSPVVIDASTAIDAPSNLRFLATTPNSLLVSWQPPRARITGYIIKYEKPGSPPREVVPRPRPGVTEATITGLEPGTEYTIYVIALKNNQKSEPLIGRKKT”, which “soluble on expression in E. coli” value is on record?
A: Its value is “soluble”.

Q: For “KTKALIIEDKTLTDDQRKEQLLGVDTEYAKGIENIDAAKDAAGVDKAYSDGVRDILAQYKEGQNLNDRRNAAKEFL”, which “soluble on expression in E. coli” value is on record?
A: Its value is “not soluble”.

Q: With “MSSCKSHVYVSAFLLCMLIPISQQVLNEHNQKLEWIVGKWRSEFSGKIFWPTVPTMTFGEELVINEAPIAKSANVQFLNFSARAWSHSTKDHFHDEWGFLTVDPVGNATLMTTGNNGFTTYETGTVSPNKLVLTLKDIGRISFSRDLPVEDLRRTFIRHDDRYMEQVIEMRTATHPKVGYLEHTRVVYTKLK” as the sequence, how does the “soluble on expression in E. coli” value read?
A: The value was “not soluble”.

Q: For “MSSPERDEGTPVPDSRGHCDADTVSGTPDRRPLLGEEKAVTGEGRAGIVGSPAPRDVEGLVPQIRVAAARQGESPPSVRGPAAAVFVTPKYVEKAQETRGAESQARDVKTEPGTVAAAAEKSEVATPGSEEVMEVEQKPAGEEMEMLEASGGVREAPEEAGPWHLGIDLRRNPLEAIQLELDTVNAQADRAFQHLEQKFGRMRRHYLERRNYIIQNIPGFWMTAFRNHPQLSAMIRGRDAEMLRYVTSLEVKELRHPKTGCKFKFFFRRNPYFRNKLIVKEYEVRSSGRVVSLSTPIIWRRGHEPQSFIRRNQDLICSFFTWFSDHSLPESDRIAEIIKEDLWPNPLQYYLCREGIRRPRRRPIREPVEIPRPFGFQSG”, which “soluble on expression in E. coli” value is on record?
A: Its value is “not soluble”.

Q: Which “soluble on expression in E. coli” value does the source give for “SLSSLEGQENSFTINSVDMKSLPDWTVQNGKNLTLQCFADVSTTSHVKPQHQMLFYKDDVLFYNISSMKSTESYFIPEVRIYDSGTYKCTVIVNNKEKTTAEYQLLVEGVPSPRVTLDKKEAIQGGIVRVNCSVPEEKAPIHFTIEKLELNEKMVKLKREKNSRDQNFVILEFPVEEQDRVLSFRCQARIISGIHMQTSESTKSELVTVTESFSTPKFHISPTGMIMEGAQLHIKCTIQVTHLAQEFPEIIIQKDKAIVAHNRHGNKAVYSVMAMVEHSGNYTCKVESSRISKVSSIVVNITELFSKPELESSFTHLDQGERLNLSCSIPGAPPANFTIQKEDTIVSQTQDFTKIASKSDSGTYICTAGIDKVVKKSNTVQIVVCEMLS” here?
A: Its value is “soluble”.

Q: For “GPGSMSLKVNILGHEFSNPFMNAAGVLCTTEEDLRRMTESESGSLIGKSCTLAPRTGNPEPRYFGLPLGSINSMGLPNLGVDFYLSYAAQTHDYSRKPLFLSMSGLSVEESVEMVKKLAPITKEKGTILELNLSCPNVPGKPQVGYDFDTTRTYLQKVSEAYGLPFGVKMPPYFDIAHFDMAAAVLNDFPLVKFITCVNSIGNGLVIDPANETVVIKPKQGFGGLGGKYVLPTALANVNAFFRRCPDKLVFGCGGVYSGEEAFLHILAGASMVQVGTALHDEGPIIFARLNKELQEIMTNKGYKTLDEFRGRVKTMD”, which “soluble on expression in E. coli” value is on record?
A: Its value is “soluble”.

Q: Which “soluble on expression in E. coli” value does the source give for “MNQTKTTTDDNKNSKPAETESTITVPEWITETINGGSFCHVDLETGTNGWASPPGNVFSLRSHNYFTATKQKSPGGDYLLSLAAVDWLKSTTKKLDHILSRPDNRVIHAFKTSQSRSFIFAVNFQVPGKEHYNLVFYFATQKPIPSDSLLHKFINTDEDSFRNERFKIVSNVVKGPWVVKAAAGKFGAFVAGKAMKCTYYRGDNYFEVDVDISSSAIMTALIRFMLGYVTYLMVDIGFVVEAQTAEELPERLIGGARICHMELSSSFLVDDDEKKSLQPRRRMMGAAEDNDDEI” here?
A: The value was “soluble”.

Q: Which “soluble on expression in E. coli” value does the source give for “MVEIIDTTFRDAHQSLIATRMSTKDMLPIAEKMDKIGFYSMEVWGGATFDVSLRFLREDPWERLKLLREHIRKTKLQMLLRGQNLVGYRHYPDDVVEKFVELAYKNGIDIFRVFDALNDVRNMKTAIKKAKEIGAEVQGAICYTTGPIFTIDYYLQKVDELIELDVDYITIKDMAGLADPQTAYELVKEIKERYGIKVNFHTHATSGLAVATYLKAVEAGVDYIDTSIYPLAGGTAQPAVQTMYYALPKGKRPKLNIKLIHEISKYLTNLLEKKYDHLLTKKAIHGDPNVLIHQIPGGMYSNLIKQLSELKALDKLEEVLEEVPRVREDLGYPPLVTPTSQIVGVQAVLNVLFGRYKQVTKETKDYVRGLYGRPPGKIKEEIKKLILGDEEPINVRPADLLEPMLEKAKKELKEKGYLEKEEDVVTYCLFPQVALEFFELRRQGRLRPVEEKPKGKPIKIYINGKEFEVFVEGIEFEPPKPKPQVQAIPSQPPKREVVAPSGSVVSAPMPGKVLRVLVRVGDRVRVGQGLLVLEAMKMENEIPSPRDGVVKRILVKEGEAVDTGQPLIELE” here?
A: Its value is “soluble”.

Q: Which “soluble on expression in E. coli” value does the source give for “MDEEDPINPCFQTISMGGGYVSGEIYRSDFEINDDARCIITTQSSAKAYKTVDGKTSEQHTNITLGKNSILEYISDNVIVYEDGKFAQFNNFKMDSSATLIYTECFGPGSPHGSAYQYEKMYLNTKIYYDDKLVLFDNLKFQPRKNDESAFGIMDGYHYCGTMIVINQQVIEDDVIKIRDLVKEKYPDMDMIFGVSRMDIPGLGLRVLANTYYHVEKINAVAHDYFRRKLFNKKPLILRKPLEHHHHHH” here?
A: The value was “not soluble”.

Q: With “MNRIKSTLTALLLAGSFQASAADQTILNSSYDIARELFVAYNPVFAEHWQQKTGKTVEIKQSHAGSSAQARSILQGLAADVVTFNQVTDVQILHDKGKLIPANWQTLLPNASSPYYSTTAFLVRKGNPKNIQDWSDLVRDDVKSVFPNPKTSGNARYTYLAALGFAQKQFGQDNQVQQDEFLKKFLANVAVFDTGGRGATTSFVERGIGDVLITFESEVNNIRQQYGADDYQVVVPKTSILAEFPVAVVEKVAKRNGTYDVATEYVSYLYSEPAQRLLAEFNYRVHDAKVQAEFAERFPAVELLTVEGIAGGWEQAMQTQFANGAKLDQLLRR” as the sequence, how does the “soluble on expression in E. coli” value read?
A: Its value is “not soluble”.

Q: Which “soluble on expression in E. coli” value does the source give for “MSSNTTEHGEHFNESIVNEVILEDMKKNRIDHMKYLPGMETMEESDVMEQVITAMNAYDYDKYTEKDVRRALEHDNRTVEDFQALLSPAALPLLEEIAQAARVETRKHFGNSVYMFTPIYIANYCENYCIYCGFNCHNKIRRAQLNAEEIDKEMAAIAKTGLQEILILTGESRIKSDVKYIGEACKIARKYFKVIGLEVYPMNSDEYHYLHECGADYVTVFQETYNSDKYETLHLAGHKRIFPYRLNAQERALKGGMRGVGFAALLGLDDFRKDAFATGYHAWLLQRKYPHAEIAFSCPRLRPIINNDRINPMDVHEPQLLQVVCAYRLFMPFASITVSTRECERVRDNLVNIAATKISAGVSTGIGSHVEDIEDKGDDQFEISDGRSVDEVYQALLNHDLQPVMNDYVYL” here?
A: Its value is “not soluble”.

Q: With “MGNESTPLRTITQALKLARPGTVIQLTPGNYSVETGETFPLMLKPGVSIQGNTSNKGQEVKIQGGGLFLSRSFGGQNVAIVGANQAGLTGVTITNPNPRGYGLWIESSNPVISENTFTGNTQDGISVTGNSATTITKNYFYRNGANGITIGGNSPAQVRENLFEETGFGINVAQNAVPMLVSNQIQNNRSGIIVQANARPILRNNLIQGSKEDGVVAIAQAMPDLGNATEAGGNEFRNNARHDINASAAKQAIAAVGNILDTKRITGKVALEHHHHHH” as the sequence, how does the “soluble on expression in E. coli” value read?
A: The value was “not soluble”.

Q: Which “soluble on expression in E. coli” value does the source give for “MMPFEAVIGLEVHVQLNTKTKIFCSCSTSFGESPNSNTCPVCLGLPGALPVLNKEVVKKAIQLGTAIEANINQYSIFARKNYFYPDLPKAYQISQFEVPIVSDGKLEIDTKEGAKIVRIERAHMEEDAGKNIHEGSYSLVDLNRACTPLLEIVSKPDMRNSEEAIAYLKKLHAIVRFIGISDANMQEGNFRCDANVSIRPKGDEKLYTRVEIKNLNSFRFIAKAIEYEIERQSAAWENGRYNEEVVQETRLFDTHKGITLSMRNKEESADYRYFKDPDLYPVFIDEKLLKEAQKINELPSAKKIRYMKDFNLKEDDANLLVSDPLLAQYFESMLHLGVKAKTSVTWLCVELLGRLKAEITLENCGVSTHMLGALAKRIDEGKISGKSAKDVLDKLLEEQGGDVDALIEQMGLSQVNDTEAIVKVIEEVLKNNADKVLEYKSGKDKLFGFFVGQAMKNLKGANPSVVNAILKEKLG” here?
A: The value was “not soluble”.

Q: Which “soluble on expression in E. coli” value does the source give for “MGSDKIHHHHHHMIETKFKQTELCRIPEDWDIGTFADFLITFSAGATPYRGIPDNFVGTIPWISSGELNYCEIENTREHISSDAQKNTHLTLHKPGTFLIAITGLEAAGTRGRCAFVKTPATTNQSCLAINSTDKMTVKYLFWFYRQWSDFLAFNFSQGSKQQSFTAEIVKRLPLYAPKYKEQEKIAEALSDVDKLIRELDTLIEKKRAVMQGTMQELLTAHRRLPGFVHPWRNTLVEKCCKITTGESNTRDQIESGIYPFYIRSATVMRSNSYIFDCEGVITIGDGQIGKVFHYVNGKFDLHQRCYLMYDFDDIDVKFFYFLFSFFFYNRVIALSAKATVDSVRRNMIAKMKINIPSTMQEQKAIANILSDMNDGIEAIEAKRDKYIAVRQGMMQQLLTGKIRLI” here?
A: Its value is “not soluble”.
